Values joined by “and” are separate entries in the source; they are usually repeats but may differ in a detail not shown here. Identical values can stand only once. Where no end group is shown, it is not given here.
T1: mMepS-L24R (E. coli, UniProt P0AFV4 27-188, C1 replaced with a Met residue | L24R)
T1 construct: Site-directed mutant of mMepS; also called L24R variant; source: E. coli BL21 (DE3), purified (Ni-NTA, SEC)
T1 sequence (looked up): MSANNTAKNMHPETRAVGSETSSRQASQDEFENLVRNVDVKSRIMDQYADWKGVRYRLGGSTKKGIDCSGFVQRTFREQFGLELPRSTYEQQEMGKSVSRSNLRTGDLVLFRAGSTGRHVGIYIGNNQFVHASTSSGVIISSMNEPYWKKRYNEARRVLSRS

T2: mMepS-Q28A (E. coli, UniProt P0AFV4 27-188, C1 replaced with a Met residue | Q28A)
T2 construct: Site-directed mutant of mMepS; source: E. coli BL21 (DE3), purified (Ni-NTA, SEC)
T2 sequence (looked up): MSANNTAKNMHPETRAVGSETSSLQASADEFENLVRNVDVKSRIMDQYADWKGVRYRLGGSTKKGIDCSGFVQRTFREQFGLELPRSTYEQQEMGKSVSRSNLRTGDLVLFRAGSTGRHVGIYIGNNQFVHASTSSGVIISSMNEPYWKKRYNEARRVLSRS

B1: NlpI (residues 20-294), soluble mature lipoprotein NlpI without the lipoprotein signal peptide (natural protein, E. coli, UniProt P0AFB1 20-294, looked up)
chain: SNTSWRKSEVLAVPLQPTLQQEVILARMEQILASRALTDDERAQLLYERGVLYDSLGLRALARNDFSQALAIRPDMPEVFNYLGIYLTQAGNFDAAYEAFDSVLELDPTYNYAHLNRGIALYYGGRDKLAQDDLLAFYQDDPNDPFRSLWLYLAEQKLDEKQAKEVLKQHFEKSDKEQWGWNIVEFYLGNISEQTLMERLKADATDNTSLAEHLSETNFYLGKYYLSLGDLDSATALFKLAVANNVHNFVEHRYALLELSLLGQDQDDLAESDQQ
notes: the lipidation residue C19 is not in the construct; pET28a, N-terminal His-tag followed by a TEV site; also called NlpI dimer; adaptor NlpI; source: E. coli BL21 (DE3), purified (Ni-NTA, SEC, MonoQ)
B2: soluble mature form of MepS (mMepS, residues 1-162) (enzyme, E. coli, UniProt P0AFV4 27-188, looked up)
chain: MSANNTAKNMHPETRAVGSETSSLQASQDEFENLVRNVDVKSRIMDQYADWKGVRYRLGGSTKKGIDCSGFVQRTFREQFGLELPRSTYEQQEMGKSVSRSNLRTGDLVLFRAGSTGRHVGIYIGNNQFVHASTSSGVIISSMNEPYWKKRYNEARRVLSRS
modifications: 15N-labelled in the NMR titrations
notes: Cloned into either pET21a (C-terminal His-tag) or pET28a (N-terminal His-tag and TEV site); also called wild-type mMepS; mature full-length MepS; source: E. coli BL21 (DE3), purified (Ni-NTA, SEC)

Tests used:
[1] = molecular target: the molecule itself; test: crystal structure; NlpI-mMepS complex, 2.8 Å, space group C2, PDB 8XUP
[2] = molecular target: B2; test: ITC; NlpI (300 or 600 µM) injected into 30 µM MepS protein in the cell; 20 °C; 20 mM HEPES pH 7.5, 300 mM NaCl, 2 mM β-mercaptoethanol; one set of sites model; conditions: both partners purified
[3] = molecular target: T1, mMepS-L24R; test: as above; conditions: both partners purified
[4] = molecular target: T2, mMepS-Q28A; test: as above; conditions: both partners purified
[5] = molecular target: B2; test: NMR titration; 1H-15N TROSY-HSQC of 15N-labelled MepS protein (50 µM in Fig. 1) with unlabelled NlpI dimer (25 µM), NlpI-ΔN or Prc^SK added; 298 K; intensity ratios I/I0; conditions: both partners purified
[6] = molecular target: T3, NlpI (residues 20-294, without the lipoprotein signal peptide) (E. coli, UniProt P0AFB1 20-294); test: ITC; NlpI (or NlpI-ΔN) in the syringe, 300 or 600 µM, injected into 30 µM MepS protein in the cell; 20 °C; 20 mM HEPES pH 7.5, 300 mM NaCl, 2 mM β-mercaptoethanol; one set of sites model; three experiments and their average; conditions: both partners purified
T3 construct: the lipidation site C19 is not in the construct; pET28a with an N-terminal His-tag and a TEV cleavage site; also called NlpI-WT; NlpI dimer; source: E. coli BL21 (DE3), purified (Ni-NTA, SEC, MonoQ)

[7] = molecular target: B1; test: ITC; NlpI (300 or 600 µM) injected into 30 µM MepS protein in the cell; 20 °C; 20 mM HEPES pH 7.5, 300 mM NaCl, 2 mM β-mercaptoethanol; one set of sites model; conditions: both partners purified

Kd [6] | Kd [7] [µM] | Binder | also measured
– | – | B1 | stoichiometry N [1]: 2; stoichiometry N [2]: 1; fold increase in KD against mMepS [3]: ~28 fold; fold decrease in binding affinity against mMepS [4]: 7.7 fold; NMR signal intensity ratio with NlpI [5]: < 10%
0.25 µM and 0.22 µM | – | soluble mature form of MepS (mMepS, residues 1-162) (enzyme, E. coli, UniProt P0AFV4 27-188, looked up, numbers count on: the mature protein; Cloned into either pET21a (C-terminal His-tag) or pET28a (N-terminal His-tag and TEV site); also called mMepS-1; mMepS-2; source: E. coli BL21 (DE3), purified (Ni-NTA, SEC)) MSANNTAKNMHPETRAVGSETSSLQASQDEFENLVRNVDVKSRIMDQYADWKGVRYRLGGSTKKGIDCSGFVQRTFREQFGLELPRSTYEQQEMGKSVSRSNLRTGDLVLFRAGSTGRHVGIYIGNNQFVHASTSSGVIISSMNEPYWKKRYNEARRVLSRS | –
6.21 µM and 6.8 µM and 6.94 µM and 6.65 µM | – | mMepS-L24R (enzyme, E. coli, UniProt P0AFV4 27-188, looked up, numbers count on: the mature protein; Site-directed mutant of mMepS; source: E. coli BL21 (DE3), purified (Ni-NTA, SEC)) MSANNTAKNMHPETRAVGSETSSRQASQDEFENLVRNVDVKSRIMDQYADWKGVRYRLGGSTKKGIDCSGFVQRTFREQFGLELPRSTYEQQEMGKSVSRSNLRTGDLVLFRAGSTGRHVGIYIGNNQFVHASTSSGVIISSMNEPYWKKRYNEARRVLSRS | –
0.28 µM and 0.39 µM and 0.5 µM | – | mMepS-D39A (enzyme, E. coli, UniProt P0AFV4 27-188, looked up, numbers count on: the mature protein; Site-directed mutant of mMepS; source: E. coli BL21 (DE3), purified (Ni-NTA, SEC)) MSANNTAKNMHPETRAVGSETSSLQASQDEFENLVRNVAVKSRIMDQYADWKGVRYRLGGSTKKGIDCSGFVQRTFREQFGLELPRSTYEQQEMGKSVSRSNLRTGDLVLFRAGSTGRHVGIYIGNNQFVHASTSSGVIISSMNEPYWKKRYNEARRVLSRS | –
– | 0.24 | B2 | –
– | 0.39 | mMepS-D39A (enzyme, E. coli, UniProt P0AFV4 27-188, looked up, Site-directed mutant of mMepS; source: E. coli BL21 (DE3), purified (Ni-NTA, SEC)) MSANNTAKNMHPETRAVGSETSSLQASQDEFENLVRNVAVKSRIMDQYADWKGVRYRLGGSTKKGIDCSGFVQRTFREQFGLELPRSTYEQQEMGKSVSRSNLRTGDLVLFRAGSTGRHVGIYIGNNQFVHASTSSGVIISSMNEPYWKKRYNEARRVLSRS | –
1.91 µM and 1.77 µM and 1.88 µM and 1.85 µM | – | mMepS-Q28A (enzyme, E. coli, UniProt P0AFV4 27-188, looked up, numbers count on: the mature protein; Site-directed mutant of mMepS; source: E. coli BL21 (DE3), purified (Ni-NTA, SEC)) MSANNTAKNMHPETRAVGSETSSLQASADEFENLVRNVDVKSRIMDQYADWKGVRYRLGGSTKKGIDCSGFVQRTFREQFGLELPRSTYEQQEMGKSVSRSNLRTGDLVLFRAGSTGRHVGIYIGNNQFVHASTSSGVIISSMNEPYWKKRYNEARRVLSRS | –
2.65 µM and 2.55 µM and 2.84 µM | – | MSANNTAKNMHPETRAVGSETSSLQASQDEFENLVRNVD (domain or fragment, E. coli, UniProt P0AFV4 27-65, looked up, MepS, E. coli, mature residues 1-39, C1 replaced by Met; numbers count on: the mature protein; His-tag and TEV site; nothing is said for the ITC samples; source: E. coli BL21 (DE3), purified (Ni-NTA, SEC)) | –
– | 2.68 | MSANNTAKNMHPETRAVGSETSSLQASQDEFENLVRNVD (domain or fragment, E. coli, UniProt P0AFV4 27-65, looked up, also: 15N-labelled, MepS, E. coli, N-terminal 39 residues of the mature protein, C1 replaced with Met. numbers count on: the mature protein; this is told for the NMR samples, not for ITC; source: E. coli BL21 (DE3), purified (Ni-NTA, SEC); not shown: His6 with TEV site, N-terminal, kept) | –
1.19 µM and 1.56 µM and 1.59 µM | – | MepS-N53 (residues 1-53) (domain or fragment, E. coli, UniProt P0AFV4 27-79, looked up, MepS, E. coli, mature residues 1-53, C1 replaced by Met; numbers count on: the mature protein; His-tag and TEV site; nothing is said for the ITC samples; source: E. coli BL21 (DE3), purified (Ni-NTA, SEC)) MSANNTAKNMHPETRAVGSETSSLQASQDEFENLVRNVDVKSRIMDQYADWKG | –
– | 1.45 | MepS-N53 (residues 1-53) (domain or fragment, E. coli, UniProt P0AFV4 27-79, looked up, also: 15N-labelled, MepS, E. coli, N-terminal 53 residues of the mature protein, C1 replaced with Met. numbers count on: the mature protein; this is told for the NMR samples, not for ITC; source: E. coli BL21 (DE3), purified (Ni-NTA, SEC); not shown: His6 with TEV site, N-terminal, kept) MSANNTAKNMHPETRAVGSETSSLQASQDEFENLVRNVDVKSRIMDQYADWKG | –

From paper PMC11211486, “Structural basis for recruitment of peptidoglycan endopeptidase MepS by lipoprotein NlpI” (Nature Communications, 2024)
